Article PMC3688267 (Nature structural & molecular biology, 2011)
Substitutions are numbered along the chain they refer to. Names may count otherwise. Values belong to the binder of their own block, whether it stands above or below them.

Legend:
Assay in all cases: ITC
SpRap1RCT V651R = molecular target: T1, SpRap1RCT V651R (S. pombe, UniProt Q96TL7 639-693, V651R)
T1 sequence (looked up): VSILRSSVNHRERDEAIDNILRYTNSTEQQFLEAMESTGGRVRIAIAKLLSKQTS

[1] = molecular target: T2, S. pombe SpRap1RCT (SpRap1 residues 639-693) (S. pombe, UniProt Q96TL7 639-693)
T2 sequence (looked up): T1 sequence (looked up) with R13V

[2] = molecular target: T3, human RAP1RCT (RAP1 C-terminal RCT domain, residues 303-399) (human, UniProt Q9NYB0 303-399)
T3 sequence (looked up): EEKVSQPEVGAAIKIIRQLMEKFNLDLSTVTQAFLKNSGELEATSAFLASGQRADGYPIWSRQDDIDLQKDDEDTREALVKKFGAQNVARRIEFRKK

[3] = molecular target: T4, S. cerevisiae ScRap1RCT (ScRap1 residues 679-827) (S. cerevisiae, UniProt P11938 679-827)
T4 sequence (looked up): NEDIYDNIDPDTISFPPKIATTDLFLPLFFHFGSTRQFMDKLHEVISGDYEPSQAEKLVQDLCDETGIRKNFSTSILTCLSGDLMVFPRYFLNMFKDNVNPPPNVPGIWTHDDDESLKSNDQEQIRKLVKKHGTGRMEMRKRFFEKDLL

binding result [1]: binds
B3: Taz1RBM L380R (domain or fragment, S. pombe, UniProt P79005 365-396, looked up)
chain: LSVKGMLYDSDSQQIRNRLRERVSGSTAQSAD

Kd [2]: 23.9 nM
B4: full-length TRF2 protein (natural protein)
chain: MAGGGGSSDGSGRAAGRRASRSSGRARRGRHEPGLGGPAERGAGEARLEEAVNRWVLKFYFHEALRAFRGSRYGDFRQIRDIMQALLVRPLGKEHTVSRLLRVMQCLSRIEEGENLDCSFDMEAELTPLESAINVLEMIKTEFTLTEAVVESSRKLVKEAAVIICIKNKEFEKASKILKKHMSKDPTTQKLRNDLLNIIREKNLAHPVIQNFSYETFQQKMLRFLESHLDDAEPYLLTMAKKALKSESAASSTGKEDKQPAPGPVEKPPREPARQLRNPPTTIGMMTLKAAFKTLSGAQDSEAAFAKLDQKDLVLPTQALPASPALKNKRPRKDENESSAPADGEGGSELQPKNKRMTISRLVLEEDSQSTEPSAGLNSSQEAASAPPSKPTVLNQPLPGEKNPKVPKGKWNSSNGVEEKETWVEEDELFQVQAAPDEDSTTNITKKQKWTVEESEWVKAGVQKYGEGNWAAISKNYPFVNRTAVMIKDRWRTMKRLGMN

Kd [2]: 16.5 nM
B5: human TRF2RBM (RAP1-binding motif, TRF2 residues 275-316) (domain or fragment)
chain: QLRNPPTTIGMMTLKAAFKTLSGAQDSEAAFAKLDQKDLVLP

Continued, binder first:

B1: S. pombe Taz1RBM (Taz1 residues 365-396) (domain or fragment, UniProt P79005 365-396, looked up)
chain: B3 chain with R16L
binding result (SpRap1RCT V651R): binds | Kd [1]: 2000 nM

B2: Taz1RBM V387R (domain or fragment, S. pombe, UniProt P79005 365-396, looked up)
chain: B3 chain with R16L, V23R
binding result [1]: binds

B6: S. cerevisiae Sir3RBM (Sir3 residues 456-481) (peptide, UniProt P06701 456-481, looked up)
chain: EKGNAKMIDFATLSKLKKKYQIILDR
Kd [3]: ~1800 nM
